Where no end group is shown, it is not given here.

The labels stand for the following.
B1: Phage-3148 (peptide)
peptide: AEYMCIPSWMCHGM
modifications: cysteine pairing not given here; also: fused to phage pIII, orientation and linker not given here
notes: Clonal phage of the Peptide-180 library, tested as crude supernatant; not shown: fused to pIII of the bacteriophage
B2: Phage-3154 (peptide)
peptide: PWIVCKPAWMCTGF
modifications: cysteine pairing not given here; also: fused to phage pIII, orientation and linker not given here
notes: as for B1
B3: Phage-3156 (peptide)
peptide: IQVMCRPAWMCSGF
modifications: cysteine pairing not given here; also: fused to phage pIII, orientation and linker not given here
notes: as for B1
B4: Phage-3155 (peptide)
peptide: VSSMCKPAWMCSGF
modifications: cysteine pairing not given here; also: fused to phage pIII, orientation and linker not given here
notes: as for B1
B5: Phage-3151 (peptide)
peptide: FPRLCEPLWMCKGF
modifications: cysteine pairing not given here; also: fused to phage pIII, orientation and linker not given here
notes: as for B1
B6: Phage-3147 (peptide)
peptide: FEMFCIPAWMCSGL
modifications: cysteine pairing not given here; also: fused to phage pIII, orientation and linker not given here
notes: as for B1
B7: Phage-3149 (peptide)
peptide: LLPACKPTWMCTGL
modifications: cysteine pairing not given here; also: fused to phage pIII, orientation and linker not given here
notes: as for B1
B8: Phage-3144 (peptide)
peptide: HLPRCEPAWMCHGF
modifications: cysteine pairing not given here; also: fused to phage pIII, orientation and linker not given here
notes: as for B1
B9: Phage-3143 (peptide)
peptide: SVPLCIPEWMCVGF
modifications: cysteine pairing not given here; also: fused to phage pIII, orientation and linker not given here
notes: as for B1
B10: Phage-3153 (peptide)
peptide: DMSLCKPPWMCFGF
modifications: cysteine pairing not given here; also: fused to phage pIII, orientation and linker not given here
notes: as for B1
B11: Phage-3152 (peptide)
peptide: WDQWCVPKWMCQGF
modifications: cysteine pairing not given here; also: fused to phage pIII, orientation and linker not given here
notes: as for B1
B12: Phage-3150 (peptide)
peptide: DAPLCKPQWMCSGF
modifications: cysteine pairing not given here; also: fused to phage pIII, orientation and linker not given here
notes: as for B1
B13: Phage-3146 (peptide)
peptide: GPIMCQPRWMCEGF
modifications: cysteine pairing not given here; also: fused to phage pIII, orientation and linker not given here
notes: as for B1
B14: Phage-3145 (peptide)
peptide: IERSCTPSWMCHGF
modifications: cysteine pairing not given here; also: fused to phage pIII, orientation and linker not given here
notes: as for B1
B15: Phage-3141 (peptide)
peptide: YERVCEPLWMCTGF
modifications: cysteine pairing not given here; also: fused to phage pIII, orientation and linker not given here
B16: Phage-3136 (peptide)
peptide: VVQICKPSWMCEGF
modifications: cysteine pairing not given here; also: fused to phage pIII, orientation and linker not given here
B17: Phage-3132 (peptide)
peptide: THIICKPAWMCDAW
modifications: cysteine pairing not given here; also: fused to phage pIII, orientation and linker not given here
B18: Phage-3142 (peptide)
peptide: AGVYCTPMWMCTGF
modifications: cysteine pairing not given here; also: fused to phage pIII, orientation and linker not given here
B19: Phage-3140 (peptide)
peptide: IDTICRPSWMCLGF
modifications: cysteine pairing not given here; also: fused to phage pIII, orientation and linker not given here
B20: Phage-3137 (peptide)
peptide: IVPKCQPSWMCFGF
modifications: cysteine pairing not given here; also: fused to phage pIII, orientation and linker not given here
B21: Phage-3139 (peptide)
peptide: TAPVCVPWWMCEGF
modifications: cysteine pairing not given here; also: fused to phage pIII, orientation and linker not given here
B22: Phage-3138 (peptide)
peptide: DTRICKPEWMCMGM
modifications: cysteine pairing not given here; also: fused to phage pIII, orientation and linker not given here
B23: Phage-3135 (peptide)
peptide: HQLMCRPAWMCEGF
modifications: cysteine pairing not given here; also: fused to phage pIII, orientation and linker not given here
B24: Phage-3133 (peptide)
peptide: YERSCVPSWMCEGF
modifications: cysteine pairing not given here; also: fused to phage pIII, orientation and linker not given here
B25: Phage-3134 (peptide)
peptide: AERLCVPAWMCLNL
modifications: cysteine pairing not given here; also: fused to phage pIII, orientation and linker not given here

One assay addresses T1, PSMA Fab.
T1 construct: also called Anti-PSMA Fab; 006 PSMA Fab
Kind of assay: clonal phage ELISA on captured PSMA Fab pre-incubated with PSMA antigen as competitor, anti-M13 HRP detection.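 Note: crude clonal phage supernatants tested by ELISA, wells first treated with blocking buffer plus PSMA antigen, bound phage read out via HRP-linked anti-M13 antibody.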
Experimental: (§1) Clonal phage were harvested as crude supernatants and screened via standard ELISAs. […] Prior to the addition of clonal phage. wells were incubated with blocking buffer and PSMA antigen or blocking buffer alone. Without washing or aspirating, clonal phage supernatants were then added to the wells and incubated for a short time. Wells were then washed followed by detection of bound phage using a horse radish conjugated anti-M13 antibody.
As to B1, the “phage binding ELISA signal (Anti-PSMA Fab, PSMA antigen present)” value is 0.0861.
The same measure, in the same setting: in the case of B2 it was 0.118.
In the case of B3, the “phage binding ELISA signal (Anti-PSMA Fab, PSMA antigen present)” value came to 0.0959.
B4: the “phage binding ELISA signal (Anti-PSMA Fab, PSMA antigen present)” value stood at 0.0629.
Take B5: the “phage binding ELISA signal (Anti-PSMA Fab, PSMA antigen present)” value was 0.0987.
Turning to B6, the “phage binding ELISA signal (Anti-PSMA Fab, PSMA antigen present)” value came out at 0.0821.
Consider B7, for which the “phage binding ELISA signal (Anti-PSMA Fab, PSMA antigen present)” value was found to be 0.135.
Turning to B8, the “phage binding ELISA signal (Anti-PSMA Fab, PSMA antigen present)” value was determined as 0.0904.
B9: the “phage binding ELISA signal (Anti-PSMA Fab, PSMA antigen present)” value was 0.106.
For the molecule B10, the “phage binding ELISA signal (Anti-PSMA Fab, PSMA antigen present)” value came out at 0.0792.
For the molecule B11, the “phage binding ELISA signal (Anti-PSMA Fab, PSMA antigen present)” value was 0.197.
B12: the “phage binding ELISA signal (Anti-PSMA Fab, PSMA antigen present)” value came out at 0.0854.
On the same count and under the same terms, the same measure for B13: 0.0807; for B14: 0.072.

A further assay addresses T2, PSMA Fab (006 PSMA Fab).
T2 construct: also called Anti-PSMA Fab; anti-PSMA Fab
The experiment in a line: clonal phage ELISA; biotinylated PSMA Fab on neutravidin plate pre-incubated with PSMA antigen as competitor; anti-M13 HRP detection.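 Note: crude clonal phage supernatants briefly incubated on wells preloaded with PSMA antigen in blocking buffer, or buffer only as control, bound phage detected with HRP-conjugated anti-M13 antibody.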
Experimental: as §1
For the molecule B15, the “Phage binding ELISA signal, Anti-PSMA Fab in presence of PSMA” value (“Phage binding ELISA signal … of PSMA” for short) stood at 0.0802.
For the molecule B16, the “Phage binding ELISA signal … of PSMA” value amounted to 0.102.
On the same count and under the same terms, in the case of B17 it was 0.0691; in that of B18, 0.0775.
B19: the “Phage binding ELISA signal … of PSMA” value is 0.0788.
Consider B20, for which the “Phage binding ELISA signal … of PSMA” value turned out to be 0.0991.
The same measure, in the same setting: the same measure for B21: 0.0757; for B22: 0.107.
As to B23, the “Phage binding ELISA signal … of PSMA” value worked out at 0.118.
B24: the “Phage binding ELISA signal … of PSMA” value was 0.066.
Consider B25, for which the “Phage binding ELISA signal … of PSMA” value stood at 0.0543.

A further assay deals with T1, PSMA Fab. The experiment in a line: clonal phage ELISA on biotinylated PSMA Fab captured on neutravidin plates, anti-M13 HRP detection, blocking buffer alone.
Experimental: as §1
As to B1, the “Phage binding ELISA signal, Anti-PSMA Fab” value was found to be 2.05.
For the molecule B2, the “Phage binding ELISA signal, Anti-PSMA Fab” value was found to be 2.04.
With B3, the “Phage binding ELISA signal, Anti-PSMA Fab” value came out at 2.04.
For B4, the “Phage binding ELISA signal, Anti-PSMA Fab” value came to 2.04.
On to B5, for which the “Phage binding ELISA signal, Anti-PSMA Fab” value was found to be 2.04.
Take B6: the “Phage binding ELISA signal, Anti-PSMA Fab” value is 2.05.
With B7, the “Phage binding ELISA signal, Anti-PSMA Fab” value came out at 2.04.
With B8, the “Phage binding ELISA signal, Anti-PSMA Fab” value stood at 2.05.
For B9, the “Phage binding ELISA signal, Anti-PSMA Fab” value amounted to 2.05.
Turning to B10, the “Phage binding ELISA signal, Anti-PSMA Fab” value was found to be 2.04.
As to B11, the “Phage binding ELISA signal, Anti-PSMA Fab” value was 2.04.
Still for that read-out and setting: in the case of B12 it was 2.04; in that of B13, 2.05.
As for B14, the “Phage binding ELISA signal, Anti-PSMA Fab” value is 2.05.

Another assay deals with T2, PSMA Fab (006 PSMA Fab). The experiment in a line: clonal phage ELISA; biotinylated PSMA Fab on neutravidin plate, blocking buffer alone; anti-M13 HRP detection.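 Note: crude clonal phage supernatants added without washing to wells pretreated with blocking buffer with or without PSMA antigen, short incubation, then washed before detecting bound phage.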
Experimental: as §1
Take B15: the “Phage binding ELISA signal, Anti-PSMA Fab” value was found to be 2.05.
As to B16, the “Phage binding ELISA signal, Anti-PSMA Fab” value is 2.06.
Regarding B17, the “Phage binding ELISA signal, Anti-PSMA Fab” value is 2.06.
B18: the “Phage binding ELISA signal, Anti-PSMA Fab” value came out at 2.05.
As for B19, the “Phage binding ELISA signal, Anti-PSMA Fab” value stood at 2.05.
On the same count and under the same terms, in the case of B20 it was 2.06; in that of B21, 2.05.
Consider B22, for which the “Phage binding ELISA signal, Anti-PSMA Fab” value came to 2.06.
For the molecule B23, the “Phage binding ELISA signal, Anti-PSMA Fab” value turned out to be 2.06.
With B24, the “Phage binding ELISA signal, Anti-PSMA Fab” value worked out at 2.06.
In the case of B25, the “Phage binding ELISA signal, Anti-PSMA Fab” value came to 2.06.

Values taken from patent publication US20260242478A1 (published 2026).
